Our source for the CD69 expression in CD3+ Jurkat cells (percent activated), overnight co-culture with SiHa cells and EC50 values is patent US20220125845A1 (GUANGDONG TCRCURE BIOPHARMA TECHNOLOGY, published 2022).

Substitutions are numbered along the chain they refer to.

Assay [1] addresses ALPP on ALPP-positive SiHa cervical cancer cells (UniProt P05187). The assay is described as follows: cell-based or functional assay.
Assay [2] has as its target T1, ALPP on ALPP-positive SiHa cervical cancer cells (UniProt P05187 23-506, limits assumed).
T1 construct: whole, on cells; SiHa cells (ATCC) are called ALPP-positive cervical cancer cells, and ALPP is the target meant; SiHa is a human line; also called PLAP; SiHa cells
Description: flow cytometry on SiHa cells, AF488 goat anti-mouse IgG (Fcγ specific) secondary. Here is the method:
(§1) 0.2×10⁶ SiHa cells were incubated with serially diluted anti-ALPP antibodies as described herein. Afterward, an AF488 goat anti-human secondary antibody or an AF488 goat anti-mouse IgG (Fcγ fragment specific) was used to stain the cells. Then, the fluorescently stained cells were detected by flow cytometry. Binding curves and calculated EC₅₀ values are shown in FIG. 10B and the table below, respectively.
On the technique in general: A flow cytometer gives signals particle by particle.

The target in assay [3] is T2, ALPP antigen (alkaline phosphatase, placental), coated on ELISA plates (UniProt P05187 23-506, limits assumed).
T2 construct: 125 ng ALPP antigen was coated per plate/well; the general description concerns human ALPP; also called PLAP; placental alkaline phosphatase
T2 sequence (P05187 23-506 limits assumed): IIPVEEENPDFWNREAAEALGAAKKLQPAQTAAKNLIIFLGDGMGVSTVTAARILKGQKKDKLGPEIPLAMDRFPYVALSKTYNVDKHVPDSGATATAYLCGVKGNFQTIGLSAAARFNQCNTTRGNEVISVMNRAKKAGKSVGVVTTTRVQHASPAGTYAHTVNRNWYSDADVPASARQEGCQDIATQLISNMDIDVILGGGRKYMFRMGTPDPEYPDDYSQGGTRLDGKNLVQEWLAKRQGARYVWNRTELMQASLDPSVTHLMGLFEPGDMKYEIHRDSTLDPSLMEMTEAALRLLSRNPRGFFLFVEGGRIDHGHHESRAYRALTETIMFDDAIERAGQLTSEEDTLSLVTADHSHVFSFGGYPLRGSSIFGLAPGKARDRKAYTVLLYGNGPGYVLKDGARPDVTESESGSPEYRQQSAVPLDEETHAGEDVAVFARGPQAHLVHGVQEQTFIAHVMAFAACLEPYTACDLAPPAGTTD
The assay is described as follows: ELISA, plate coated with 125 ng ALPP antigen, biotin goat anti-mouse Fc and streptavidin-HRP, OD450. Here is the method:
(§2) Enzyme-linked immunosorbent assay (ELISA) plates were coated with 125 ng ALPP antigen. After blocking the plates, serial dilutions of anti-ALPP antibodies including A02 (H17E2), A04, A05, A06, A07, A08, A09, or a chimeric antibody were added to corresponding wells. Then, a Biotin-SP-AffiniPure goat anti-human antibody was added to wells containing the humanized antibodies A04, A05, A06, A07, A08, A09, or the chimeric antibody. Meanwhile, a Biotin-SP-AffiniPure goat anti-mouse Fc antibody was added to wells containing the mouse antibody H17E2. Next, HRP-conjugated streptavidin was used for biotin detection. Final detection was accomplished by assessing OD450 after 3,3′,5,5′-Tetramethylbenzidine (TMB) substrate was added. Binding curves and calculated EC₅₀ values are shown in FIG. 10A and the table below, respectively.
(In general: An ELISA detects its analyte on a solid surface through an enzyme-linked reagent.)

For assay [4], the target named is T1, ALPP on ALPP-positive SiHa cervical …. Description: flow cytometry on SiHa cells, AF488 goat anti-human secondary. The procedure: as §1
For assay [5], the target named is T2, ALPP antigen (alkaline phosphatase, …). Description: ELISA, plate coated with 125 ng ALPP antigen, biotin goat anti-human and streptavidin-HRP, OD450. Here is the method: as §2

T1 sequence (P05187 23-506 limits assumed): as above
Chain of ALPP on ALPP-positive SiHa cervical cancer cells (UniProt P05187) (P05187 23-506 limits assumed): as above

Regarding “A02 CAR (murine H17E2 scFv, CD8 hinge and transmembrane region, 4-1BB, CD3 zeta)”, the CD69 expression in CD3+ Jurkat cells (percent activated), overnight co-culture with SiHa cells in assay [1] is 70 to 80%.

B1: parent mouse anti-ALPP antibody H17E2 (antibody, V domains shown)
VH: QVQLKESGPGLVAPSQSLSITCTVSGFSLTSYGVSWVRQPPRKGLEWLGVIWEDGSTNYHSALISRLSINKDNSKSQVFLKLNSLQTDDTATYYCAKPHYGSSYVGAMEYWGQGTSVTVSS
VL: DIQMTQSPASLTASVGETVTITCRASENIYSYVAWYQQKQGKSPQFLVYNAKSLAEGVPSRFSGSGSGTQFSLKINSLQPEDFGNYYCQHHYVSPWTFGGGTKLEIK
notes: Mouse monoclonal antibody, detected with goat anti-mouse Fc secondary antibodies; also called A02; A02 antibody
The EC50 is the concentration needed to bring the measured effect to its halfway point. A low value points to greater potency. For B1, the EC50 in assay [2] is 0.211 mg/L; in assay [3] it was 0.0108 mg/L.

B2: humanized anti-ALPP antibody A05 (antibody, V domains shown)
VH: QVQLKESGPGLVAPSQTLSLTCTVSGFSLTSYGVSWIRQPPGKGLEWIGVIWEDGSTNYHSALISRVSISVDTSKSQFSLKLSSVDAADTAVYYCARPHYGSSYVGAMEYWGQGTTVTVSS
VL: DIQMTQSPSSLSASVGDRVTITCRASENIYSYVAWYQQKPGKAPKFLIYNAKSLAEGVPSRFSGSGSGTDFTLTISSLQPEDFANYYCQHHYVSPWTFGQGTKVEIK
notes: Detected with a goat anti-human secondary antibody; also called A05Ab
Regarding B2, the EC50 in assay [4] was found to be 0.225 mg/L; in assay [5], 0.00491 mg/L.

B3: humanized anti-ALPP antibody A04 (antibody, V domains shown)
VH: B2 VH with K5Q
VL: B2 VL
notes: Detected with a goat anti-human secondary antibody; also called A04Ab
As for B3, the EC50 was determined as 0.286 mg/L in assay [4] and 0.00589 mg/L in assay [5].

B4: humanized anti-ALPP antibody A08 (antibody, V domains shown)
VH: B2 VH with K5Q, A13K
VL: B2 VL
notes: Detected with a goat anti-human secondary antibody; also called A08Ab
Turning to B4, the results for the EC50 in assay [4] and in assay [5] were 0.233 mg/L and 0.00481 mg/L, respectively.

B5: humanized anti-ALPP antibody A06 (antibody, V domains shown)
VH: B2 VH with R97K
VL: B2 VL with F46L
notes: Detected with a goat anti-human secondary antibody; also called A06Ab
Consider B5, for which the EC50 in assay [4] came out at 0.257 mg/L; in assay [5], 0.0037 mg/L.

B6: humanized anti-ALPP antibody A07 (antibody, V domains shown)
VH: B2 VH with R97K
VL: B2 VL
notes: Detected with a goat anti-human secondary antibody; also called A07Ab
Regarding B6, the EC50 was 0.302 mg/L in assay [4] and 0.00534 mg/L in assay [5].
